Data on 15 molecules can be found in PMC7166090, “A bacteriophage mimic of the bacterial nucleoid-associated protein Fis” (Biochemical Journal, 2020).

Data set [1] deals with His-NinH R30A (bacteriophage λ) (UniProt P03771). Description: AUC; sedimentation velocity, ~0.6 mg/ml protein, 4°C, 50 000 rpm, scans at 260 and 280 nm, SEDFIT.
The target of the next data set is T1, His-NinH K35A (Bacteriophage lambda (cI857 Sam7), UniProt P03771 1-68, A15T;K35A).
T1 sequence: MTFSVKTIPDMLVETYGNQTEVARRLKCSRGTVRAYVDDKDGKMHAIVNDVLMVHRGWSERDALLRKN
The description is as above.

Another data set concerns the target T2, His-NinH T32A (Bacteriophage lambda (cI857 Sam7), UniProt P03771 1-68, A15T;T32A).
T2 sequence: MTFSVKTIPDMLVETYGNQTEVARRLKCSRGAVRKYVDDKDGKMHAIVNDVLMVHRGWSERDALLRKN
The data set is described as above.

A further data set has as its target T3, His-NinH N18A (Bacteriophage lambda (cI857 Sam7), UniProt P03771 1-68, A15T;N18A).
T3 sequence: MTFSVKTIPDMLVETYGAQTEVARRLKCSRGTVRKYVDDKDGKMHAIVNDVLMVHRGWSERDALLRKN
Described as above.

Data set [2] has as its target His-NinH S29A R30A (bacteriophage λ) (UniProt P03771). Described as above.
Another data set deals with T4, His-NinH S29A (Bacteriophage lambda (cI857 Sam7), UniProt P03771 1-68, A15T;S29A).
T4 sequence: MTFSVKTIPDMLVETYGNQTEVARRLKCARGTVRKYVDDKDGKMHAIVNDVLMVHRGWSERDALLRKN
Described as above.

The target of another data set is T5, His-NinH R56A (Bacteriophage lambda (cI857 Sam7), UniProt P03771 1-68, A15T;R56A).
T5 sequence: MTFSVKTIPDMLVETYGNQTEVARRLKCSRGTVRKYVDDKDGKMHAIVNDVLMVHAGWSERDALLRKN
The data set is described as above.

Data set [3] concerns the target T6, NinH (native, untagged) (Bacteriophage lambda (cI857 Sam7), UniProt P03771 1-68, A15T).
T6 sequence: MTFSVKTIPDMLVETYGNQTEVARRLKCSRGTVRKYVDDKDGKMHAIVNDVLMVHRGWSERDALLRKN
Description: EMSA; affinity similar to DS60, more second complex; MST: PBS pH 7.4 + 0.05% Tween-20, 22 C; anisotropy: 6.7 mM Tris-HCl pH 8.0, 3.3 nM (so in the source) sodium acetate, 2 mM EDTA, 25 C; EMSA (32P): 50 mM Tris-HCl pH 8.0, 5 mM EDTA, 1 mM DTT, 5% glycerol, 100 ug/ml BSA, on ice; EMSA (Cy520): PBS pH 7.4, room temp. The note with it: protein: recombinant, tags: none, chain copies: 2, label: 5'-32P on strand 1.

Data set [4] deals with T6, NinH (native, untagged). Description: EMSA; similar to DS60; MST: PBS pH 7.4 + 0.05% Tween-20, 22 C; anisotropy: 6.7 mM Tris-HCl pH 8.0, 3.3 nM (so in the source) sodium acetate, 2 mM EDTA, 25 C; EMSA (32P): 50 mM Tris-HCl pH 8.0, 5 mM EDTA, 1 mM DTT, 5% glycerol, 100 ug/ml BSA, on ice; EMSA (Cy520): PBS pH 7.4, room temp. As to conditions: protein: recombinant, tags: none, chain copies: 2, label: 5'-32P on strand 1. In general terms: In EMSA bound probe runs differently from free probe, usually more slowly.

Data set [5] deals with the molecule itself. Description: SAXS; His-NinH in solution at 4 mg/ml, Xeuss 2.0 laboratory SAXS system.

By stoichiometry N is commonly meant the number of molecules, sites or subunits per partner or assembly. As to “His-NinH R30A (from UniProt P03771 1-68) (natural protein)”, the stoichiometry N in [1] is 2.
In the case of “His-NinH K35A (from UniProt P03771 1-68) (natural protein)”, in the data set with His-NinH K35A, the stoichiometry N was determined as 2.
“His-NinH T32A (from UniProt P03771 1-68) (natural protein)”: in the data set with His-NinH T32A, the stoichiometry N is 2.
For “His-NinH N18A (from UniProt P03771 1-68) (natural protein)”, the stoichiometry N with His-NinH N18A amounted to 2.
With “His-NinH S29A R30A (from UniProt P03771 1-68) (natural protein)”, in data set [2], the stoichiometry N was determined as 2.
As for “His-NinH S29A (from UniProt P03771 1-68) (natural protein)”, in the data set with His-NinH S29A, the stoichiometry N was 2.
As to “His-NinH R56A (from UniProt P03771 1-68) (natural protein)”, the stoichiometry N with His-NinH R56A worked out at 2.

B1: BT1 (dsDNA)
DNA 1: TTTGGTCTAACTTTACCGCTACTAAATGCCGCGGATTGGTTTCGCTGAATCAGGTTATTA
DNA 2: TAATAACCTGATTCAGCGAAACCAATCCAGCGGCATTTAGTAGCGGTAAAGTTAGACCAAA
As to B1, the binding result with NinH (native, untagged) [3] (1 extra A bulge in strand 2) is recorded as “binds”.

B2: BT2 (dsDNA)
DNA 1: TTTGGTCTAACTTTACCGCTACTAAATGCCGCGGATTGGTTTCGCTGAATCAGGTTATTA
DNA 2: TAATAACCTGATTCAGCGAAACCAATCCAAGCGGCATTTAGTAGCGGTAAAGTTAGACCAAA
Turning to B2, in the data set with NinH (native, untagged) [3] (2 extra A bulge in strand 2), the binding result was “binds”.

B3: BB13 (dsDNA)
DNA 1: TTTGGTCTAACTTTACCGCTACTAAATGCCGCGGATTGGTTTCGCTGAATCAGGTTATTA
DNA 2: TAATAACCTGATTCAGCGAAACATTGTAGGTAAGCTTAGTAGCGGTAAAGTTAGACCAAA
Regarding B3, in the data set with NinH (native, untagged) [4] (central 13 nt bubble), the binding result is “binds”.

B4: BB1 (dsDNA)
DNA 1: TTTGGTCTAACTTTACCGCTACTAAATGCCGCGGATTGGTTTCGCTGAATCAGGTTATTA
DNA 2: TAATAACCTGATTCAGCGAAACCAATCGGCGGCATTTAGTAGCGGTAAAGTTAGACCAAA
As for B4, the binding result with NinH (native, untagged) [4] (central 1 nt mismatch) was “binds”.

B5: BB20 (dsDNA)
DNA 1: TTTGGTCTAACTTTACCGCTACTAAATGCCGCGGATTGGTTTCGCTGAATCAGGTTATTA
DNA 2: TAATAACCTGATTCAGCGAATGACCGATAACGTCCACTTGAGCGGTAAAGTTAGACCAAA
On to B5, for which the binding result in the data set with NinH (native, untagged) [4] (central 20 nt bubble) is on record as “binds”.

B6: BB5 (dsDNA)
DNA 1: TTTGGTCTAACTTTACCGCTACTAAATGCCGCGGATTGGTTTCGCTGAATCAGGTTATTA
DNA 2: TAATAACCTGATTCAGCGAAACCAATCGCAACCATTTAGTAGCGGTAAAGTTAGACCAAA
With B6, the binding result with NinH (native, untagged) [4] (central 5 nt bubble) is reported as “binds”.

B7: BT3 (dsDNA)
DNA 1: TTTGGTCTAACTTTACCGCTACTAAATGCCGCGGATTGGTTTCGCTGAATCAGGTTATTA
DNA 2: TAATAACCTGATTCAGCGAAACCAATCCAAAGCGGCATTTAGTAGCGGTAAAGTTAGACCAAA
As to B7, in the data set with NinH (native, untagged) [3] (3 extra A bulge in strand 2), the binding result is “binds”.

B8: N-His6-NinH (bacteriophage λ NinH, wild type) (natural protein)
chain: MTFSVKTIPDMLVEAYGNQTEVARRLKCSRGTVRKYVDDKDGKMHAIVNDVLMVHRGWSERDALLRKN
For the molecule B8, the “stoichiometry N” value in data set [5] turned out to be 2.
